The record followed here is US10562947B2, “Compositions and methods for preventing or treating diseases, conditions or processes characterized by aberrant fibroblast proliferation and extracellular matrix deposition” (MOERAE MATRIX, INC., priority 2011, dated 2020).

Holding throughout (test): Kinase Profiling Assay
Holding throughout (type): biochemical
Conditions in all cases: 100 μM peptide

In one assay the target is EGFR(T790M,L858R)(h) (Homo sapiens, UniProt P00533, L858R/T790M). A digest of the protocol: (§1)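 Specificity of the MK2-directed peptides is examined by measuring activity of 266 human kinases, every determination performed in duplicate.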
Another assay addresses EphA4(h) (Homo sapiens, UniProt P54764). A digest of the protocol:
as §1

The next assay addresses T1, EphB4(h) (Homo sapiens, UniProt P54760).
T1 sequence (P54760 16-987): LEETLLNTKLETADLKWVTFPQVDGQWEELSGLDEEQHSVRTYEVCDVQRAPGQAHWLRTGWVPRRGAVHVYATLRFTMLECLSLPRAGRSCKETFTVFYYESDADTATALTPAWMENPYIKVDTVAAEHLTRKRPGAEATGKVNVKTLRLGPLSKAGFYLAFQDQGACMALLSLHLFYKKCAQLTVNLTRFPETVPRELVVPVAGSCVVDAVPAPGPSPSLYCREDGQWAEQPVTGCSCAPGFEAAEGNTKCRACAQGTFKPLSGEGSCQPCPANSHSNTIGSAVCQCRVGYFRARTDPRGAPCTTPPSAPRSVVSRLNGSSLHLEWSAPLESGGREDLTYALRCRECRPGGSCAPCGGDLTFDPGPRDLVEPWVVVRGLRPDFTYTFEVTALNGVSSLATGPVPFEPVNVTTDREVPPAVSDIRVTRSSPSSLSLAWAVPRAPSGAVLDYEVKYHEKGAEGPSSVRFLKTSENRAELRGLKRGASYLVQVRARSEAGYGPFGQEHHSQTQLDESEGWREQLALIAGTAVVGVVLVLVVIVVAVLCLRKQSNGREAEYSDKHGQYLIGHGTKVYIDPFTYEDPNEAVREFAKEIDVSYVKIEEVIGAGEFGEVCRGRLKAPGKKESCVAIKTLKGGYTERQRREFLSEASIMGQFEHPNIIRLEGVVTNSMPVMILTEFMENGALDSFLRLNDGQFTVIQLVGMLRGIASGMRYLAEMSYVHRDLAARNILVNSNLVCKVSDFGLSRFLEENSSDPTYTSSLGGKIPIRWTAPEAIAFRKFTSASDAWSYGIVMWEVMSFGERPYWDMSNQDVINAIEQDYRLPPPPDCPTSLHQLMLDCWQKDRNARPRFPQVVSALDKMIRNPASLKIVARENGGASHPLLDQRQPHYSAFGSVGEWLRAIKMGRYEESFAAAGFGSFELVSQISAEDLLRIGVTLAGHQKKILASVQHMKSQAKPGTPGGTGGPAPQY
The essentials: as §1

The next assay addresses FGFR1(V561M)(h) (Homo sapiens, UniProt P11362, V561M). A digest of the protocol: as §1
The target of another assay is T2, IRAK4(h) (Homo sapiens, UniProt Q9NWZ3).
T2 construct: purchased Millipore
T2 sequence (Q9NWZ3 1-460): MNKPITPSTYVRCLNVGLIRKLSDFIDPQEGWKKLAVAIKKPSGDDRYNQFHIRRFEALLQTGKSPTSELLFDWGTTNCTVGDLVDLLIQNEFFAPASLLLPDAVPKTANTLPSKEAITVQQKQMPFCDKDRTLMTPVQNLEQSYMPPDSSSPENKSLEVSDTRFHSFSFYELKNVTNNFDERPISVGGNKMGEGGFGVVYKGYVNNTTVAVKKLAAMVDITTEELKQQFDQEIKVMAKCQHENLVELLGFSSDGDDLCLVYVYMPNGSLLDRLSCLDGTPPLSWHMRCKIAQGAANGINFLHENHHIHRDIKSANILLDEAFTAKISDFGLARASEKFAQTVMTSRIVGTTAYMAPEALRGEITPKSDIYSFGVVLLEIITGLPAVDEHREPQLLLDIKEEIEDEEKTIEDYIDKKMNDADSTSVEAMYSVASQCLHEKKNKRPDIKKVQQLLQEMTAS
A digest of the protocol: as §1

Another assay concerns the target MSSK1(h) (Homo sapiens, UniProt Q9UPE1). The essentials:
as §1

The target of a further assay is PASK(h) (Homo sapiens, UniProt Q96RG2). A digest of the protocol:
as §1

Another assay deals with PKCα(h) (Homo sapiens, UniProt P17252). The essentials: as §1
The target of a further assay is STK33(h) (Homo sapiens, UniProt Q9BYT3). A digest of the protocol:
as §1

Another assay addresses T3, Src(1-530)(h) (Homo sapiens, UniProt P12931).
T3 construct: Src(1-530)
A digest of the protocol: as §1

MSSK1(h), sequence (Q9UPE1 whole entry): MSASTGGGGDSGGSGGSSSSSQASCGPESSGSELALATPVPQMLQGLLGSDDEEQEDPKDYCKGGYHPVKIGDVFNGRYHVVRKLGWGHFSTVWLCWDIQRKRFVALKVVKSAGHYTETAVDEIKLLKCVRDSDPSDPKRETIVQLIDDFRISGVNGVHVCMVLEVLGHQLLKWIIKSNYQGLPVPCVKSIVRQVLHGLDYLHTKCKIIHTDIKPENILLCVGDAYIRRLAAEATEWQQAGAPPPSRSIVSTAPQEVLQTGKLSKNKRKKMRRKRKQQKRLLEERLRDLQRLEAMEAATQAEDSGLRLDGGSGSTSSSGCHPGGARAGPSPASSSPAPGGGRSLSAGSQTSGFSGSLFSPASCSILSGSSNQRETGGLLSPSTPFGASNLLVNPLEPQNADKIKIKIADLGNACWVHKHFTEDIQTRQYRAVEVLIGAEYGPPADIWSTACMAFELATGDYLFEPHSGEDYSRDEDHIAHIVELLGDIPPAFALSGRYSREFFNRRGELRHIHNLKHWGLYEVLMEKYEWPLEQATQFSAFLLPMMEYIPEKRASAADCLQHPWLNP
EphA4(h), sequence (P54764 20-986): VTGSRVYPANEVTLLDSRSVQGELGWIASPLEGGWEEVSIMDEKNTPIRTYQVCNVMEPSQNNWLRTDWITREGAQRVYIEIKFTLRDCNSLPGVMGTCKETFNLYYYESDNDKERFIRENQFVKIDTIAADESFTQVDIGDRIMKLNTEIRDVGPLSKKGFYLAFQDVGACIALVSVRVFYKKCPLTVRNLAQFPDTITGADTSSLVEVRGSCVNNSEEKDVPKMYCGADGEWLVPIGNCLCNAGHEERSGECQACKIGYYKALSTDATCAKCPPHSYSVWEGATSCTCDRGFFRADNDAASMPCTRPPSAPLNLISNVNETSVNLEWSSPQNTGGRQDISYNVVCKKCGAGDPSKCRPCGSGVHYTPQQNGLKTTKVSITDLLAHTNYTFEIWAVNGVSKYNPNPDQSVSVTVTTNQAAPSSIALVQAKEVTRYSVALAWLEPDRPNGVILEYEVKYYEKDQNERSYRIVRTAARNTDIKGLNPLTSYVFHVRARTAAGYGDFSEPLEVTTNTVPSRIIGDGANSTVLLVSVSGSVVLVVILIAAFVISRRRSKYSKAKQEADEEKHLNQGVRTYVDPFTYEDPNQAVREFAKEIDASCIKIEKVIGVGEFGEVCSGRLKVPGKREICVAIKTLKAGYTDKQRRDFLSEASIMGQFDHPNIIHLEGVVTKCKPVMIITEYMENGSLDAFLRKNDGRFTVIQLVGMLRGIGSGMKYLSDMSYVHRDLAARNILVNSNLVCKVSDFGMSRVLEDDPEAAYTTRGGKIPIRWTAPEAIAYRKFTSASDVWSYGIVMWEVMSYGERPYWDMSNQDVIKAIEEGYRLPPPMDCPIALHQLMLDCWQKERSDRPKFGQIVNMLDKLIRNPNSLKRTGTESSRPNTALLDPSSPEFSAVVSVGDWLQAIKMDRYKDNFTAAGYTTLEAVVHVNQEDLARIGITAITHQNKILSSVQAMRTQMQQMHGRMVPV
FGFR1(V561M)(h), sequence (P11362 22-822 V561M): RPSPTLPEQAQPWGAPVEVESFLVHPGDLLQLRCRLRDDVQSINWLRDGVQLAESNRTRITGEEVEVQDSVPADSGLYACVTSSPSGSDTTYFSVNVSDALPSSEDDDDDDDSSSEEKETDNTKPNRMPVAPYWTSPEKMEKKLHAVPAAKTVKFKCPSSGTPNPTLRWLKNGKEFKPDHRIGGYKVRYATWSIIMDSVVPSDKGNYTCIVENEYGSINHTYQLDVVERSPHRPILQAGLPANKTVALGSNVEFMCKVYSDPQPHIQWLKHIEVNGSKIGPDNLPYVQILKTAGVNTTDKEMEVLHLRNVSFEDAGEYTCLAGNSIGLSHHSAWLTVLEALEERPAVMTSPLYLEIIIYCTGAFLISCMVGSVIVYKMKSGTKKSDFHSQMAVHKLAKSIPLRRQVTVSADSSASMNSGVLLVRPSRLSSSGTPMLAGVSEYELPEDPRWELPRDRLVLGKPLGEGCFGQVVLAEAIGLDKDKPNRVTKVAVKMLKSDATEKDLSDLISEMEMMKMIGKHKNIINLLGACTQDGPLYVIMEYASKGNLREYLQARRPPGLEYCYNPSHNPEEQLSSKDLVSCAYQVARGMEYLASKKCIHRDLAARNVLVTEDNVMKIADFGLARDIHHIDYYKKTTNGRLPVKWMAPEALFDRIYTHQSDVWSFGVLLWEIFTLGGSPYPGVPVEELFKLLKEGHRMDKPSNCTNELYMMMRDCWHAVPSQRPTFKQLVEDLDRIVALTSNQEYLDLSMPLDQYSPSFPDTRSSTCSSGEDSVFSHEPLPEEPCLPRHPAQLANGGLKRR
PASK(h), sequence (Q96RG2 whole entry): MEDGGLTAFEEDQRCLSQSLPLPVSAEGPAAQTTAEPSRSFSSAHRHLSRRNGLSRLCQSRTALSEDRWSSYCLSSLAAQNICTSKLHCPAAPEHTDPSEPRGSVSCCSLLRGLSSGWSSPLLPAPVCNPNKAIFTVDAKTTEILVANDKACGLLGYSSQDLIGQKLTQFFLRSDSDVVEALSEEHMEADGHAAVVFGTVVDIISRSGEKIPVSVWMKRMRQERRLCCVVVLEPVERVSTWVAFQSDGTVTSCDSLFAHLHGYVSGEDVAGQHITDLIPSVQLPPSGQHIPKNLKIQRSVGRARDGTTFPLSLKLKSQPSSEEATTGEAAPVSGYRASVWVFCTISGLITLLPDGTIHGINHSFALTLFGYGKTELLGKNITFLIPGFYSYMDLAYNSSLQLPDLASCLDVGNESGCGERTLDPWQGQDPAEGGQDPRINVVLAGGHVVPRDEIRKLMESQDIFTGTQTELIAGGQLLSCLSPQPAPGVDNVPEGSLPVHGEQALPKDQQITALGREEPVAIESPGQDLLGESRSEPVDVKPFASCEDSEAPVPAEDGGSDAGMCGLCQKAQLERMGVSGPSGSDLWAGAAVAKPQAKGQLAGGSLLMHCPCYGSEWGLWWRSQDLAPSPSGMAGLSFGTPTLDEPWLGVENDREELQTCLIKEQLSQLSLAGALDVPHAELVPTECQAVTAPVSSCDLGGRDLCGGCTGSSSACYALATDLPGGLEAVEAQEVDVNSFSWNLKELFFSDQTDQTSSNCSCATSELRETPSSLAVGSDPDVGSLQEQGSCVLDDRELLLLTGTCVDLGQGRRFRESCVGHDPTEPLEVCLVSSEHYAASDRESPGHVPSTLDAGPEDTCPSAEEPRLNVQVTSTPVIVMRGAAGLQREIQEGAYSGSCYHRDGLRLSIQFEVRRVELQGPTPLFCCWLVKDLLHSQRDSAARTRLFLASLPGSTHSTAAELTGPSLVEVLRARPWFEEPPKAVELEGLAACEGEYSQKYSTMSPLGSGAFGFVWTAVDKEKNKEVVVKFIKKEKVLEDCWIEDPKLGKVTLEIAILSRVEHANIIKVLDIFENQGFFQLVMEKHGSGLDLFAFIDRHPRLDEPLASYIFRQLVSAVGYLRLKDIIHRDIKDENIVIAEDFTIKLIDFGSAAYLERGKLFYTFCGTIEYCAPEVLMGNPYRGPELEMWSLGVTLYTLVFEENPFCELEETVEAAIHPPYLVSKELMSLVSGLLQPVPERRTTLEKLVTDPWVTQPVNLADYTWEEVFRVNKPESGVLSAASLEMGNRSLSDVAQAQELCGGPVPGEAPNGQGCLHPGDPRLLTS
STK33(h), sequence (Q9BYT3 whole entry): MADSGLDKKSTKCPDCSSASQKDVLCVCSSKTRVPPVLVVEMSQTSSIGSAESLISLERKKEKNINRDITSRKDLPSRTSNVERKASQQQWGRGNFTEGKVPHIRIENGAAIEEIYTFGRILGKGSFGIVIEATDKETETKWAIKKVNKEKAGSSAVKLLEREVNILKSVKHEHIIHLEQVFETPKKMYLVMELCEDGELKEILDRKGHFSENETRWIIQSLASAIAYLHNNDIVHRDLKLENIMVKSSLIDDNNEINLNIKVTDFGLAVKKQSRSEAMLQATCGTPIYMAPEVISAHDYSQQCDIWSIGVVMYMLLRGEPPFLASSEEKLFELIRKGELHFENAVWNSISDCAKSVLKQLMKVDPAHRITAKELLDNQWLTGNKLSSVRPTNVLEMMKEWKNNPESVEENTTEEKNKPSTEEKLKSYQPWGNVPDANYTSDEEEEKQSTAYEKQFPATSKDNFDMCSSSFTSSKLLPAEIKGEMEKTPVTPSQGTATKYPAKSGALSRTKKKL

“YARAAARQARAKALNRQLGVA (Mammalian) [MMI-0200]”: in the assay with EGFR(T790M,L858R)(h), the “EGFR(T790M,L858R)(h) % activity” value is listed as 108%. For the same sequence, in the assay with EphA4(h), the “EphA4(h) % activity” value was 127%. Also, the “EphB4(h) % activity” value with EphB4(h) was found to be 131%. Further, the “FGFR1(V561M)(h) % activity” value in the assay with FGFR1(V561M)(h) was found to be 72%. The “IRAK4(h) % activity” value with IRAK4(h) amounted to 110%. Besides, the “MSSK1(h) % activity” value with MSSK1(h) worked out at 100%. In addition, the “PASK(h) % activity” value with PASK(h) is listed as 60%. Also, the “PKCα(h) % activity” value with PKCα(h) is recorded as 100%. Besides, the “STK33(h) % activity” value in the assay with STK33(h) is 98%. The “Src(1-530)(h) % activity” value in the assay with Src(1-530)(h) is listed as 75%.
Turning to “HRRIKAWLKKIKALARQLGVAA (Mammalian) [MMI-0500]”, in the assay with EGFR(T790M,L858R)(h), the “EGFR(T790M,L858R)(h) % activity” value was 53%. For the same sequence, the “EphA4(h) % activity” value with EphA4(h) is on record as 48%. For the same sequence, the “EphB4(h) % activity” value with EphB4(h) was 38%. Also, the “IRAK4(h) % activity” value with IRAK4(h) was 3%. Besides, the “MSSK1(h) % activity” value in the assay with MSSK1(h) was found to be 22%. For the same sequence, in the assay with PASK(h), the “PASK(h) % activity” value is recorded as 9%. In the assay with PKCα(h), the “PKCα(h) % activity” value is 3%. For the same sequence, the “STK33(h) % activity” value in the assay with STK33(h) was determined as 16%. In addition, the “Src(1-530)(h) % activity” value with Src(1-530)(h) came to 21%.
For KAFAKLAARLYRKALARQLGVAA [MMI-0400], the “EGFR(T790M,L858R)(h) % activity” value in the assay with EGFR(T790M,L858R)(h) is 78%. In addition, the “EphA4(h) % activity” value in the assay with EphA4(h) was found to be 65%. Besides, the “EphB4(h) % activity” value with EphB4(h) worked out at 28%. Moreover, in the assay with FGFR1(V561M)(h), the “FGFR1(V561M)(h) % activity” value was 74%. In addition, the “IRAK4(h) % activity” value in the assay with IRAK4(h) was 59%. Further, the “MSSK1(h) % activity” value with MSSK1(h) stood at 75%. Moreover, the “PASK(h) % activity” value in the assay with PASK(h) was 28%. The “PKCα(h) % activity” value with PKCα(h) was found to be 86%. In the assay with STK33(h), the “STK33(h) % activity” value was 52%. The “Src(1-530)(h) % activity” value with Src(1-530)(h) is reported as 19%.
On to FAKLAARLYRKALARQLGVAA [MMI-0300], for which the “EGFR(T790M,L858R)(h) % activity” value in the assay with EGFR(T790M,L858R)(h) is 85%. The “EphA4(h) % activity” value with EphA4(h) is given as 88%. The “EphB4(h) % activity” value with EphB4(h) amounted to 44%. Besides, in the assay with FGFR1(V561M)(h), the “FGFR1(V561M)(h) % activity” value is given as 74%. Besides, in the assay with IRAK4(h), the “IRAK4(h) % activity” value is given as 59%. The “MSSK1(h) % activity” value in the assay with MSSK1(h) worked out at 77%. Besides, the “PASK(h) % activity” value in the assay with PASK(h) is given as 29%. In the assay with PKCα(h), the “PKCα(h) % activity” value worked out at 89%. For the same sequence, the “STK33(h) % activity” value with STK33(h) amounted to 45%. Also, in the assay with Src(1-530)(h), the “Src(1-530)(h) % activity” value came to 23%.
